Legend:
[1] = biological target: AAVXL32.1蛋白衣壳; experiment: BLI (Fortebio), mAb002 on protein G biosensor, antigen at 0.1406 nM
[2] = biological target: AAVXL32.1蛋白衣壳; experiment: BLI (Fortebio), mAb002 2 ug/ml on protein G biosensor, antigen at 0.5625 nM in PBS
[3] = biological target: AAVXL32.1蛋白衣壳; experiment: BLI (Fortebio), mAb002 2 ug/ml on protein G biosensor, antigen at 2.25 nM in PBS
[4] = biological target: AAVXL32.1蛋白衣壳; experiment: BLI (Fortebio), mAb002 2 ug/ml on protein G biosensor, antigen at 0.0703 nM in PBS
[5] = biological target: AAVXL32.1蛋白衣壳; experiment: BLI (Fortebio), mAb002 2 ug/ml on protein G biosensor, antigen at 0.1406 nM in PBS
[6] = biological target: AAVXL32.1蛋白衣壳; experiment: BLI (Fortebio), mAb002 2 ug/ml on protein G biosensor, antigen at 1.13 nM in PBS
[7] = biological target: AAVXL32.1蛋白衣壳; experiment: BLI (Fortebio), mAb002 2 ug/ml on protein G biosensor, antigen at 0.2813 nM in PBS
[8] = biological target: AAVXL32.1蛋白衣壳; experiment: BLI (Fortebio), mAb002 on protein G biosensor, antigen at 1.13 nM
[9] = biological target: AAVXL32.1蛋白衣壳; experiment: BLI (Fortebio), mAb002 on protein G biosensor, antigen at 0.2813 nM
[10] = biological target: AAVXL32.1蛋白衣壳; experiment: BLI (Fortebio), mAb002 on protein G biosensor, antigen at 2.25 nM
[11] = biological target: AAVXL32.1蛋白衣壳; experiment: BLI (Fortebio), mAb002 on protein G biosensor, antigen at 0.0703 nM
[12] = biological target: AAVXL32.1蛋白衣壳; experiment: BLI (Fortebio), mAb002 on protein G biosensor, antigen at 0.5625 nM

B1: mAb002抗体 (antibody, V domains shown)
VH: QVQLQQPGAELVRPGTSVKLSCKASGYTFISYWMHWVKQRPGQGLEWIGVIDPSDSYTNYNQKFKGKATLTVDTSSSTAYMQLSSLTSEDSAVYYCARYYYGSSRYFDVWGTGTTVTVSS
VL: YIQMTQTTSSLSASLGDRVTISCRASQDISNYLNWYQQKPDGTVKVLIYYTSRLHSGVPSRFSGSGSGTDYSLTISNLEQEDIATYFCQQSYTLPWTFGGGTKLEIK
Binder B1 has a Kd [1] of less than 1 pM, a koff [1] of less than 1e-07 s⁻¹ and a kon [1] of 3.26e+06 M⁻¹ s⁻¹. For the same binder, the 响应 [2] was 2.68, the 响应 [3] was 5.91 and the 响应 [4] was 0.338. The 响应 [5] was 0.701, the 响应 [6] was 4.83 and the 响应 [7] was 1.4. For the same binder, the Kd [8] was less than 1 pM, the koff [8] was less than 1e-07 s⁻¹ and the kon [8] was 3.26e+06 M⁻¹ s⁻¹. It also gave a Kd [9] of less than 1 pM, a koff [9] of less than 1e-07 s⁻¹ and a kon [9] of 3.26e+06 M⁻¹ s⁻¹. The Kd [10] was less than 1 pM, the koff [10] was less than 1e-07 s⁻¹ and the kon [10] was 3.26e+06 M⁻¹ s⁻¹. The Kd [11] was less than 1 pM, the koff [11] was less than 1e-07 s⁻¹ and the kon [11] was 3.26e+06 M⁻¹ s⁻¹. It also gave a Kd [12] of less than 1 pM, a koff [12] of less than 1e-07 s⁻¹ and a kon [12] of 3.26e+06 M⁻¹ s⁻¹.

From patent publication CN113583112A
